Substrate: Nc1ncnc2c1ncn2[C@@H]1O[C@H](COP(=O)(O)OP(=O)(O)OP(=O)(O)O)[C@@H](O)[C@H]1O
Experiment: malachite green (PiColorLock) Pi release, Cornish-Bowden plot
Type: biochemical, Arabidopsis thaliana
Conditions: Mg2+ (2.5 mM MgCl2), pH 7.5, 37 °C, 0.5-4.0 mM ATP
From the text: malachite green (PiColorLock) Pi release, Cornish-Bowden plot on AtVIPP1-His

B1: AtVIPP1-His (Arabidopsis thaliana) (protein)
chain: MNLFERFSRVVKSYANALISSFEDPEKILEQTVIEMNSDLTKMRQATAQVLASQKQLQNKYKAAQQSSDDWYKRAQLALAKGDEDLAREALKRRKSFADNATALKTQLDQQKGVVDNLVSNTRLLESKIQEAKAKKDTLLARARTAKTATKVQEMIGTVNTSGALSAFEKMEEKVMAMESEADALTQIGTDELEGKFQMLETSSVDDDLADLKKELSGSSKKGELPPGRSTVAASTRYPFKDSEIENELNELRRKANDF
notes: mature protein, N-terminal transit peptide removed, C-terminal His tag kept; E. coli BL21(DE3)pLysS; homo-oligomer (spherical particles 30-50 nm, some rods)
In the case of B1, the Km is reported as 3.21 mM.
